Assay results published in patent CN115197321A (UNIV SICHUAN, dated 2022).
Where a chain is given by its changes, count along the chain named. Numbers in names are those of the source. Where two headings read alike, the source gives them in different places. One block for each molecule: values may come before it.

Assays:
[1] = target: CD25-hIgG1Fc(人CD25胞外域的C端融合人IgG1的Fc段) (human) (UniProt P01589); experiment: ELISA, coated CD25-hIgG1Fc 1 μg/mL
[2] = target: T1, 人CD25 (on CD25-positive cells: SU-DHL-1, U937, NK-92, human PBMC) (human, UniProt P01589 22-272); experiment: flow cytometry on SU-DHL-1 and U937 cells, Figure 8
T1 construct: whole, on cells; Endogenous CD25 on human cells; also called IL-2Rα
T1 sequence (looked up): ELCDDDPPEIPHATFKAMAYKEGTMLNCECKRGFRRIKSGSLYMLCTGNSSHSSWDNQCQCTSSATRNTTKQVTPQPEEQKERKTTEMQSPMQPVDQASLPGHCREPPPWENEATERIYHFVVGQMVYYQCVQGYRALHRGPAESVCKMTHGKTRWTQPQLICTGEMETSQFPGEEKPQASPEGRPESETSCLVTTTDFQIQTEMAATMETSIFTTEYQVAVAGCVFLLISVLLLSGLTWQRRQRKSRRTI

[3] = target: T2, CD25-His(人CD25胞外域的C端融合6×His标签) (human, UniProt P01589 22-240); experiment: SPR (Biacore) binding kinetics, Figure 6
T2 construct: extracellular domain; Made in-house; also called 人CD25-His
T2 sequence: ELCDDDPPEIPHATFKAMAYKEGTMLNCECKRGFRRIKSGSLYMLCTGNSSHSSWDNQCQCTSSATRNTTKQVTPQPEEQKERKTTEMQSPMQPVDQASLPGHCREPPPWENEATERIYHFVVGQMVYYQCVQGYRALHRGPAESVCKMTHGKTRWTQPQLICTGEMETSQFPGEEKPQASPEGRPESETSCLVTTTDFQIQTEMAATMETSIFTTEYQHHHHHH

[4] = target: T3, 鼠CD25(R&D公司) (鼠 (mouse), UniProt P01590 22-236, limits assumed); experiment: ELISA, coated mouse CD25 50 ng/well, hybridoma supernatant
T3 construct: Bought protein
T3 sequence (looked up): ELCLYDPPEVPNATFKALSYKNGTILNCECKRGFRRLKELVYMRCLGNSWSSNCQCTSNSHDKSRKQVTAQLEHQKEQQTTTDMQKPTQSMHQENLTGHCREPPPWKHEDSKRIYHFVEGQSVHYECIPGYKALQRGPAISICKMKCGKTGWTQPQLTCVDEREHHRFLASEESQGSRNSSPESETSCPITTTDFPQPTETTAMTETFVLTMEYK

[5] = target: T2, CD25-His(人CD25胞外域的C端融合6×His标签); experiment: SPR (Biacore)
[6] = target: T2, CD25-His(人CD25胞外域的C端融合6×His标签); experiment: SPR (Biacore); remark: listed apart in the source

OD450 [1]: < 0.3 OD
Molecule: 小鼠IgG (antibody)

binding result [2]: binds
binding result [3]: binds
B1: 重组单克隆抗体7B7 (antibody, V domains shown)
VH: EVQLQESGPGLVKPSQSLSLTCTVTGYSITSDYAWNWIRQFPGNKLEWMGYINYSGSTSYNPSLKSRISITRDTSKNQFFLQLNSVTTEDTATYYCARKGGFFDVWGAGTTVTVSS
VL: DIQMTQTTSSLSASLGDRVTISCSASQGISNYLNWYQQKPDGTVKLLIYYTSSLHSGVPSRFSGSGSGTDYSLTISNLEPEDIATYYCLQYSKLPWTFGGGTKLEIK
notes: a human-mouse chimeric IgG1κ form was also made; also called 抗体7B7(来自B7)

binding result [4]: no binding
B2: 杂交瘤抗体B7 (antibody, IgG1, V domains shown)
VH: B1 VH
VL: B1 VL
notes: Mouse hybridoma antibody, mIgG1; the tie to the hybridoma antibody rests on that statement

binding result [2]: binds
binding result [3]: binds
B3: 重组单克隆抗体F10-2 (antibody, V domains shown)
VH: QVQLKQSGPGLVQPSQSLSITCTVSGFSLTSYGVHWVRQSPGKGLEWLGVIWRGGSTDYNAAFMSRLSITKDNSKSQVFFKMNSLQAGDTAVYYCAKNERFYGFDYWGQGTTLTVSS
VL: DIVMTQAAFSNPVTLGTSASISCRSSKSLLHSNGITYLYWYLQKPGQSPQLLIYQMSNLASGVPDRFSSSGSGTDFTLRISRVEAEDVGVYYCAQNLELPTFGSGTKLEIK
notes: a human-mouse chimeric IgG1κ form was also made; also called 抗体F10-2(来自F10)

binding result [4]: no binding
B4: 杂交瘤抗体F10 (antibody, IgG2a, V domains shown)
VH: B3 VH
VL: B3 VL
notes: Mouse hybridoma antibody, mIgG2a; the tie to the hybridoma antibody rests on that statement

Kd [5]: 10.5 nM
koff [5]: 0.00333 s⁻¹
kon [5]: 318000 M⁻¹ s⁻¹
B5: hF10-2-3(BM4+BM3) (antibody, V domains shown)
VH: QVQLKQSGPGLVKPSDTLSLTCTVSGFSLTSYGVHWVRQPPGKGLEWLGVIWRGGSTDYNAAFMSRLSITKDNSKSQVSLKLSSVTAADTAVYYCAKNERFYGFDYWGQGTLVTVSS
VL: B3 VL with A7S, A8P, F9L, N11L, L15P, T17E, S18P, S104G, L108V
notes: Made as for h7B7 (human IgG1κ)

binding result [5]: no binding
B6: hF10-2-1(BM4+BM) (antibody, V domains shown)
VH: B5 VH
VL: B3 VL with A7S, A8P, F9L, N11L, L15P, T17E, S18P, R79K, S104G, L108V
notes: as for B5

Kd [5]: 18.1 nM
koff [5]: 0.00126 s⁻¹
kon [5]: 69900 M⁻¹ s⁻¹
B7: hF10-2-4(BM5+BM3) (antibody, V domains shown)
VH: B5 VH with Q6E, V37I, L48I
VL: B3 VL with A7S, A8P, F9L, N11L, L15P, T17E, S18P, S104G, L108V
notes: as for B5

binding result [5]: no binding
B8: hF10-2-2(BM5+BM) (antibody, V domains shown)
VH: B5 VH with Q6E, V37I, L48I
VL: B3 VL with A7S, A8P, F9L, N11L, L15P, T17E, S18P, R79K, S104G, L108V
notes: as for B5

Kd [6]: 2.33 nM
koff [6]: 0.000356 s⁻¹
kon [6]: 153000 M⁻¹ s⁻¹
B9: 人源化抗体h7B7-15 (antibody, V domains shown)
VH: QVQLQESGPGLVKPSQTLSLTCAVYGYSITSDYAWNWIRQPPGKGLEWIGYINYSGSTSYNPSLKSRVTISVDTSKNQFSLKLSSVTAADTAVYYCARKGGFFDVWGQGTTVTVSS
VL: DIQMTQSPSSLSASVGDRVTITCSASQGISNYLNWYQQKPGKAPKLLIYYTSSLHSGVPSRFSGSGSGTDFTFTISSLQPEDIATYYCLQYSKLPWTFGGGTKVEIK
notes: Human IgG1κ; heavy chain 4 (IGHV4-34*09) with light chain 3 (IGKV1-33*01)

Kd [6]: 4.83 nM
koff [6]: 0.000554 s⁻¹
kon [6]: 115000 M⁻¹ s⁻¹
B10: h7B7-15S (antibody, V domains shown)
VH: B9 VH with N53S
VL: B9 VL
notes: N53S mutant of h7B7-15; human IgG1κ as the parent; also called h7B7突变体 N53S

Kd [6]: 8.55 nM
koff [6]: 0.00103 s⁻¹
kon [6]: 121000 M⁻¹ s⁻¹
B11: h7B7-15A (antibody, V domains shown)
VH: B9 VH with N53A
VL: B9 VL
notes: Mutant of h7B7-15 in the N of the NYS motif of VH-CDR2; human IgG1κ as the parent; also called h7B7突变体 N53A

binding result [6]: no binding
B12: h7B7-15Y (antibody, V domains shown)
VH: B9 VH with N53Y
VL: B9 VL
notes: Mutant of h7B7-15 in the N of the NYS motif of VH-CDR2; human IgG1κ as the parent; also called h7B7突变体 N53Y

Kd [6]: 21.1 nM
koff [6]: 0.00502 s⁻¹
kon [6]: 238000 M⁻¹ s⁻¹
B13: h7B7-15Q (antibody, V domains shown)
VH: B9 VH with N53Q
VL: B9 VL
notes: Mutant of h7B7-15 in the N of the NYS motif of VH-CDR2; human IgG1κ as the parent; also called h7B7突变体 N53Q
